Assay [1] concerns SFRP1, SFRP2, E-cadherin, CRBP1 genes in MDA-MB-231 cells. Kind of assay: RT-PCR re-expression of silenced tumor suppressor genes in MDA-MB-231 cells. Type of assay: cell-based, human. As to conditions: MDA-MB-231 cells. On the procedure:
The panels of FIG. 2 are as follows. […] MDA-MB-231 cells were treated with 15 mM NIA or 300 μM SPT for 21 hours, RNA was isolated, and RT-PCR was performed with intron-spanning primers specific for the indicated genes. Control samples in which no reverse transcriptase was added were analyzed separately, and all were negative for amplification of the indicated genes. […] MDA-MB-231 cells were treated with either 50 nM Aza (+), 100 μM SPT (+) or with both Aza and SPT (++), and 34 hours later, RT-PCR was performed for the indicated genes as described in FIG. 2(A). […] MDA-MB-231 cells were treated with either 0, 50, 100, or 120 μM SPT alone for 34 hours, or the treatment was followed by treatment with 300 nM TSA for 3 hours prior to RNA isolation and RT-PCR analysis. […] MDA-MB-231 cells were infected with low titers of virus for shRNA specific for SIRT1. Aza (100 nM) was added 24 hours prior to RNA isolation, and RT-PCR analysis was performed for the genes SFRP 1, SFRP2, and GAPDH as described in FIG. 2(A). […] As shown in the left panel, MDA-MB-231 cells were infected with a control (vec) or mutant SIRT1 virus (HY), and RT-PCR was performed as described in FIG. 2(A). MDA-MB-231 cells were infected with low titers of pBabe or pBabe-SIRT1H363Y retrovirus and subsequently treated with 100 nM Aza for 24 hours or with 300 nM TSA for 3 hours prior to harvest, and RT-PCR was performed.
(§1) Cell culture and retroviral infection. MDA-MB-231, MCF7, HCT116, SW480 RKO, and Phoenix cells (ATCC, Rockville, Md., United States) were cultured in Dulbecco's modified Eagle's medium supplemented with 10% fetal bovine serum and 1% penicillin/streptomycin (Invitrogen, Carlsbad, Calif., United States). Retroviral infection was performed using either single or multiple rounds of infection. Briefly, Phoenix cells were transfected with either pBabe, pBabe-SIRT1H363Y, pSUPERretro, pSUPERretro-SIRT1-RNAi-1-3 (NM_012238 positions 410, 589, and 1091; Oligo Engine, Seattle, Wash., United States) using Lipofectamine 2000 (Invitrogen). After 48 h of transfection, the medium containing retrovirus was collected, filtered, and supplemented with Polybrene prior to infection of target cells (MDA-MB-231, MCF7, or HCT116). Infected cells were either harvested 24-48 hours later or subjected to selection with 2-3 μg/ml puromycin for a week prior to harvest and analysis.
(§2) RNA and protein preparation and analysis. Total RNA was extracted (Invitrogen) according to the manufacturer's instructions and subjected to reverse transcription followed by both quantitative real-time and semi-quantitative polymerase chain reaction. For quantitative real-time analyses, the QuantiTect SYBR Green PCR kit (Qiagen, Valencia, Calif., United States) was used and the amplification conditions consisted of an initial 10-minutes denaturation step at 95° C., followed by 40 cycles of denaturation at 95° C. for 15 s and annealing and extension for 30 seconds and 60 seconds, respectively. A BioRad iCycler was used (BioRad, Hercules, Calif., United States), and for quantitation the comparative cycle threshold (Ct) method was used, normalizing the Ct values for the indicated gene to the Ct values of GAPDH relative to a control sample. For conventional PCR, at least two independent sets of intron-spanning primers were used for the analysis of multiple genes, such as CRBP1, (NM_002899), E-cadherin, (L34545), SFRP1, (BC036503), SFRP2, (BC008666), and Gata-4 (L34357). For Western blots, cells stably expressing RNAi constructs were harvested in 50 mM Tris-HCl, 1% NP-40, 0.25% sodium deoxycholate, 150 mM NaCl, 50 mM sodium fluoride, 1 mM dithiothreitol, 1 mM AEBSF, 1× Complete protease inhibitor cocktail (Roche, Basel, Switzerland). Protein concentrations were measured by BCA (Pierce Biotechnology, Rockford, Ill., United States). […] On the same blot, β-actin (Sigma, St. Louis, Mo., United States) was probed to ensure equal loading.

The test system of assay [2] is SFRP1 and SFRP2 genes in MCF7 cells. Kind of assay: RT-PCR re-expression of silenced tumor suppressor genes in MCF7 cells. Type of assay: cell-based, human. The procedure:
as §1, §2

For the molecule `NC(=O)c1cccnc1` [NIA, nicotinamide, reference compound], the “re-expression of epigenetically silenced, hypermethylated TSGs incl. CRBP1” value in assay [1] (15 mM NIA or 300 μM SPT for 21 hours) is on record as “could cause the re-expression”. In addition, the “re-expression of epigenetically silenced, hypermethylated TSGs” value in assay [2] (sirtuin inhibitors, data not shown) is given as “could cause the re-expression”.

B1: SIRT1H363Y: catalytically inactive, dominant negative inhibitor of SIRT1, expressed through retroviral infection (protein, UniProt Q96EB6 2-747, looked up, variant H363Y)
NAD-dependent protein …: ADEAALALQPGGSPSAAGADREAASSPAGEPLRKRPRRDGPGLERSPGEPGGAAPEREVPAAARGCPGAAAAALWREAEAEAAAAGGEQEAQATAAAGEGDNGPGLQGPSREPPLADNLYDEDDDDEGEEEEEAAAAAIGYRDNLLFGDEIITNGFHSCESDEEDRASHASSSDWTPRPRIGPYTFVQQHLMIGTDPRTILKDLLPETIPPPELDDMTLWQIVINILSEPPKRKKRKDINTIEDAVKLLQECKKIIVLTGAGVSVSCGIPDFRSRDGIYARLAVDFPDLPDPQAMFDIEYFRKDPRPFFKFAKEIYPGQFQPSLCHKFIALSDKEGKLLRNYTQNIDTLEQVAGIQRIIQCYGSFATASCLICKYKVDCEAVRGDIFNQVVPRCPRCPADEPLAIMKPEIVFFGENLPEQFHRAMKYDKDEVDLLIVIGSSLKVRPVALIPSSIPHEVPQILINREPLPHLHFDVELLGDCDVIINELCHRLGGEYAKLCCNPVKLSEITEKPPRTQKELAYLSELPPTPLHVSEDSSSPERTSPPDSSVIVTLLDQAAKSNDDLDVSESKGCMEEKPQEVQTSRNVESIAEQMENPDLKNVGSSTGEKNERTSVAGTVRKCWPNRVAKEQISRRLDGNQYLFLPPNRYIFHGAEVYSDSEDDVLSSSSCGSNSDSGTCQSPSLEEPMEDESEIEEFYNGLEDEPDVPERAGGAGFGTDGDDQEAINEAISVKQEVTDMNYPSNKS
For the molecule B1, the “re-expression of SFRP1 and SFRP2” value in assay [1] (dominant negative expressed through retroviral infection) was “re-expression of SFRP1 and SFRP2”. Further, the “reactivation of SFRP1 (GATA-5 and SFRP2 data not shown), combined with Aza” value in assay [1] (low titers of retrovirus, 100 nM Aza for 24 hours) was “synergistic reactivation of SFRP1”. Further, the “reactivation of SFRP1 (GATA-5 and SFRP2 data not shown), combined with TSA” value in assay [1] (low titers of retrovirus, 300 nM TSA for 3 hours) is “synergistic reactivation of SFRP1”. The “gene re-expression of SFRP1 and SFRP2” value in assay [2] (retroviral infection, RT-PCR) is “re-expression of SFRP1 and SFRP2”.
